Assays:
Experiment in all cases: cell-based or functional assay
hGLP-1R = hGLP-1R (Homo sapiens, UniProt P43220)
[1] = target: T1, human GIP receptor (human) (UniProt P48546)
T1 sequence (looked up): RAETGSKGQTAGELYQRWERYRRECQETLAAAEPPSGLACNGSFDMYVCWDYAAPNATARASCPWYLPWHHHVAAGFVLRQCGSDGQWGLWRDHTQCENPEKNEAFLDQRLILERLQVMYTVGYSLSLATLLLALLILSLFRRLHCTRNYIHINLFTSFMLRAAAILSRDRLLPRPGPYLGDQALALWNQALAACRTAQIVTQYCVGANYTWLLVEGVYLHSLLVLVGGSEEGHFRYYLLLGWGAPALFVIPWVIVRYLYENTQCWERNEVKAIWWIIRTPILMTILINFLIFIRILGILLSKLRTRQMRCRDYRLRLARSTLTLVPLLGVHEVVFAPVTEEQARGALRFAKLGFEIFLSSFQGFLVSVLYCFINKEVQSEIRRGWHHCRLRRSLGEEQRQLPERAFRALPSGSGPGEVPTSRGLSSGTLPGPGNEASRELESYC

[2] = target: human glucagon receptor (human) (UniProt P47871)
human glucagon receptor (human), sequence (P47871 26-477): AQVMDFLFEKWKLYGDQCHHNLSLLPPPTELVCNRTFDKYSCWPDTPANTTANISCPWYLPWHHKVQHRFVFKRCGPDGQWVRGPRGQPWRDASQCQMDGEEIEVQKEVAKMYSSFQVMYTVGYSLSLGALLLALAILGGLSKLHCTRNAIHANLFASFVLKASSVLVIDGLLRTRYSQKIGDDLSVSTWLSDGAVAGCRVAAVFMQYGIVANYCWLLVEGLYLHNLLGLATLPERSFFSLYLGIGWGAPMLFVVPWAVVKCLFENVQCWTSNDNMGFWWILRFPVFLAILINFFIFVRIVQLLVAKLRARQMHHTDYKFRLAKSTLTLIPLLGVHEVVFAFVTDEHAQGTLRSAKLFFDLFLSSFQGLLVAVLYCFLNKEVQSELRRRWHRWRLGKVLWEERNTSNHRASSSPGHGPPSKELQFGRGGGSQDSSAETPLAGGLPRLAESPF

hGLP-1R, sequence (P43220 24-463): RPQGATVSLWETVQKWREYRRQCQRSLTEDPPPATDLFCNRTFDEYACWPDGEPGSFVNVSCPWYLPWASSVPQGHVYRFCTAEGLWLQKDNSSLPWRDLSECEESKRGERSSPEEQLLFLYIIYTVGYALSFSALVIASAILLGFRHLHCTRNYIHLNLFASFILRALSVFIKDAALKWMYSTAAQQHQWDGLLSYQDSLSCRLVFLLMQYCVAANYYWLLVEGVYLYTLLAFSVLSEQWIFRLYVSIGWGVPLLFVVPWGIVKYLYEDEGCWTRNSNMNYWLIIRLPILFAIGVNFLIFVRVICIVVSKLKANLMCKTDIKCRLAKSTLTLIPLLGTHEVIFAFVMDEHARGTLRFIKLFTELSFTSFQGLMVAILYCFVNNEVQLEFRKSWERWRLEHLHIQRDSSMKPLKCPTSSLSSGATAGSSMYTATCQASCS

B1: Example 626 (peptide)
chain: YXQGTXTSDXSIXLDKKAQXAFIEYLEEGGPSSGAPPPEGTGE
modifications: non-natural residues, (γGlu)2-diacid acylated Lys, C-terminal amide; synthetic construct; SITE 2: note = 2-Aminoisobutyric Acid; SITE 6: note = alpha-methyl-2-fluoro-L-phenylalanine; SITE 10: note = 3-(4-Pyridyl)-L-alanine; SITE 13: note = alpha-methyl-leucine; SITE 17: note = Lysine is chemically modified through conjugation of the epsilon-amino group of the Lysine
In the case of B1, the Relative cAMP EC50 (hGLP-1R) is reported as 0.889 nM, the cAMP Rel EC50 (in the presence of 1% HSA) (hGLP-1R) is reported as 60.8 nM and the Relative cAMP EC50 [1] is reported as 0.0192 nM. It also gave a cAMP Rel EC50 (in the presence of 1% HSA) [1] of 1.75 nM, a Relative cAMP EC50 [2] of 8.72 nM and a cAMP Rel EC50 (in the presence of 1% HSA) [2] of 546 nM.

B2: Example 628 (peptide)
chain: YXQGTXTSDXSIXLDKKAQXAFIEYLEEGGPSSGEPPPEGTGE
modifications: non-natural residues; lipidated Lys; C-terminal amide; synthetic construct; SITE 2: note = 2-Aminoisobutyric Acid; SITE 6: note = alpha-methyl-2-fluoro-L-phenylalanine; SITE 10: note = 3-(4-Pyridyl)-L-alanine; SITE 13: note = alpha-methyl-leucine; SITE 17: note = Lysine is chemically modified through conjugation of the epsilon-amino group of the Lysine
B2 was tested, and the Relative cAMP EC50 (hGLP-1R) was 1.11 nM, the cAMP Rel EC50 (in the presence of 1% HSA) (hGLP-1R) was 79.8 nM and the Relative cAMP EC50 [1] was 0.0278 nM. The cAMP Rel EC50 (in the presence of 1% HSA) [1] was 1.87 nM, the Relative cAMP EC50 [2] was 7.47 nM and the cAMP Rel EC50 (in the presence of 1% HSA) [2] was 651 nM.

B3: Example 59 (peptide)
chain: YXQGTFTSDFSXXLDKKAQXAFIEYLLEGGPSSGEPPPSEG
modifications: synthetic construct; SITE 2: note = 2-Aminoisobutyric Acid; SITE 12: note = L-ornithine; SITE 13: note = alpha-methyl-leucine; SITE 17: note = Lysine is chemically modified through conjugation of the epsilon-amino group of the Lysine side chain with (2-[2-(2-Amino-ethoxy)-ethoxy]-acetyl)-(gamma-Glu)
B3 was tested, and the Relative cAMP EC50 (hGLP-1R) was 4.8 nM, the cAMP Rel EC50, nM (in the presence of 1% HSA) (hGLP-1R) was 1370 nM and the Relative cAMP EC50 [1] was 0.54 nM. It also gave a cAMP Rel EC50, nM (in the presence of 1% HSA) [1] of 166 nM, a Relative cAMP EC50 [2] of 6.57 nM and a cAMP Rel EC50, nM (in the presence of 1% HSA) [2] of 2160 nM.

B4: Example 630 (peptide)
chain: YXQGTXTSDXSIXLDKKAQXAFIEYLEEGGPSSGEPPPSGSEE
modifications: non-natural residues; lipidated Lys; C-terminal amide; synthetic construct; SITE 2: note = 2-Aminoisobutyric Acid; SITE 6: note = alpha-methyl-2-fluoro-L-phenylalanine; SITE 10: note = 3-(4-Pyridyl)-L-alanine; SITE 13: note = alpha-methyl-leucine; SITE 17: note = Lysine is chemically modified through conjugation of the epsilon-amino group of the Lysine
Work on B4 yielded a Relative cAMP EC50 (hGLP-1R) of 0.762 nM, a cAMP Rel EC50 (in the presence of 1% HSA) (hGLP-1R) of 74.5 nM and a Relative cAMP EC50 [1] of 0.0233 nM. The cAMP Rel EC50 (in the presence of 1% HSA) [1] was 2.96 nM, the Relative cAMP EC50 [2] was 8.07 nM and the cAMP Rel EC50 (in the presence of 1% HSA) [2] was 872 nM.

B5: Example 631 (peptide)
chain: YXQGTXTSDXSIXLDKKAQXAFIEYLAEGGPSSGEPPPSGSEE
modifications: non-natural residues; acylated Lys; C-terminal amide; synthetic construct; SITE 2: note = 2-Aminoisobutyric Acid; SITE 6: note = alpha-methyl-2-fluoro-L-phenylalanine; SITE 10: note = 3-(4-Pyridyl)-L-alanine; SITE 13: note = alpha-methyl-leucine; SITE 17: note = Lysine is chemically modified through conjugation of the epsilon-amino group of the Lysine
B5 was tested, and the Relative cAMP EC50 (hGLP-1R) was 0.658 nM, the cAMP Rel EC50 (in the presence of 1% HSA) (hGLP-1R) was 55 nM and the Relative cAMP EC50 [1] was 0.0375 nM. The cAMP Rel EC50 (in the presence of 1% HSA) [1] was 3.92 nM, the Relative cAMP EC50 [2] was 16.8 nM and the cAMP Rel EC50 (in the presence of 1% HSA) [2] was 1250 nM.

B6: Example 632 (peptide)
chain: YXQGTXTSDXSIXLDKKAQXAFIEYLSEGGPSSGEPPPSGSEE
modifications: Aib, αMeF(2F), 4Pal, αMeL, acylated K, C-terminal amide; synthetic construct; SITE 2: note = 2-Aminoisobutyric Acid; SITE 6: note = alpha-methyl-2-fluoro-L-phenylalanine; SITE 10: note = 3-(4-Pyridyl)-L-alanine; SITE 13: note = alpha-methyl-leucine; SITE 17: note = Lysine is chemically modified through conjugation of the epsilon-amino group of the Lysine
In the case of B6, the Relative cAMP EC50 (hGLP-1R) is reported as 0.951 nM, the cAMP Rel EC50 (in the presence of 1% HSA) (hGLP-1R) is reported as 88.2 nM and the Relative cAMP EC50 [1] is reported as 0.068 nM. For the same binder, the cAMP Rel EC50 (in the presence of 1% HSA) [1] was 5.48 nM, the Relative cAMP EC50 [2] was 13.5 nM and the cAMP Rel EC50 (in the presence of 1% HSA) [2] was 1600 nM.

B7: Example 633 (peptide)
chain: YXQGTXTSDXSIXLDKKAQXAFIEYLTEGGPSSGEPPPSGSEE
modifications: non-natural residues, C18 diacid acylation, C-terminal amide; synthetic construct; SITE 2: note = 2-Aminoisobutyric Acid; SITE 6: note = alpha-methyl-2-fluoro-L-phenylalanine; SITE 10: note = 3-(4-Pyridyl)-L-alanine; SITE 13: note = alpha-methyl-leucine; SITE 17: note = Lysine is chemically modified through conjugation of the epsilon-amino group of the Lysine
B7 showed a Relative cAMP EC50 (hGLP-1R) of 0.421 nM, a cAMP Rel EC50 (in the presence of 1% HSA) (hGLP-1R) of 41.2 nM and a Relative cAMP EC50 [1] of 0.0186 nM. It also gave a cAMP Rel EC50 (in the presence of 1% HSA) [1] of 1.63 nM, a Relative cAMP EC50 [2] of 10.2 nM and a cAMP Rel EC50 (in the presence of 1% HSA) [2] of 1500 nM.

B8: Example 634 (peptide)
chain: YXQGTXTSDXSIXLDKKAQXAFIEYLQEGGPSSGEPPPSGSEE
modifications: (γGlu)2-C18 diacid on Lys; non-natural residues; amide; synthetic construct; SITE 2: note = 2-Aminoisobutyric Acid; SITE 6: note = alpha-methyl-2-fluoro-L-phenylalanine; SITE 10: note = 3-(4-Pyridyl)-L-alanine; SITE 13: note = alpha-methyl-leucine; SITE 17: note = Lysine is chemically modified through conjugation of the epsilon-amino group of the Lysine
B8 showed a Relative cAMP EC50 (hGLP-1R) of 0.403 nM, a cAMP Rel EC50 (in the presence of 1% HSA) (hGLP-1R) of 34.9 nM and a Relative cAMP EC50 [1] of 0.0195 nM. The cAMP Rel EC50 (in the presence of 1% HSA) [1] was 1.48 nM, the Relative cAMP EC50 [2] was 6.49 nM and the cAMP Rel EC50 (in the presence of 1% HSA) [2] was 979 nM.

B9: Example 635 (peptide)
chain: YXQGTXTSDXSIXLDKKAQXXFIEYLEEGGPSSGEPPPSGSEE
modifications: non-natural residues; C18 diacid-(γ-Glu)2 acyl on Lys; C-terminal amide; synthetic construct; SITE 2: note = 2-Aminoisobutyric Acid; SITE 6: note = alpha-methyl-2-fluoro-L-phenylalanine; SITE 10: note = 3-(4-Pyridyl)-L-alanine; SITE 13: note = alpha-methyl-leucine; SITE 17: note = Lysine is chemically modified through conjugation of the epsilon-amino group of the Lysine
For B9, the Relative cAMP EC50 (hGLP-1R) was 0.625 nM, the cAMP Rel EC50 (in the presence of 1% HSA) (hGLP-1R) was 53.9 nM and the Relative cAMP EC50 [1] was 0.0405 nM. It also gave a cAMP Rel EC50 (in the presence of 1% HSA) [1] of 2.7 nM, a Relative cAMP EC50 [2] of 7.09 nM and a cAMP Rel EC50 (in the presence of 1% HSA) [2] of 753 nM.

B10: Example 636 (peptide)
chain: YXQGTXTSDXSIXLDKKAQXXFIEYLAEGGPSSGEPPPSGSEE
modifications: non-natural residues; C18 diacid-(γ-Glu)2 acyl on Lys; C-terminal amide; synthetic construct; SITE 2: note = 2-Aminoisobutyric Acid; SITE 6: note = alpha-methyl-2-fluoro-L-phenylalanine; SITE 10: note = 3-(4-Pyridyl)-L-alanine; SITE 13: note = alpha-methyl-leucine; SITE 17: note = Lysine is chemically modified through conjugation of the epsilon-amino group of the Lysine
In the case of B10, the Relative cAMP EC50 (hGLP-1R) is reported as 0.504 nM, the cAMP Rel EC50 (in the presence of 1% HSA) (hGLP-1R) is reported as 36.6 nM and the Relative cAMP EC50 [1] is reported as 0.054 nM. For the same binder, the cAMP Rel EC50 (in the presence of 1% HSA) [1] was 4.3 nM, the Relative cAMP EC50 [2] was 9.28 nM and the cAMP Rel EC50 (in the presence of 1% HSA) [2] was 935 nM.

B11: Example 637 (peptide)
chain: YXQGTXTSDXSIXLDKKAQXXFIEYLSEGGPSSGEPPPSGSEE
modifications: Aib, αMeF(2F), 4Pal, Orn; acylated lysine; amide; synthetic construct; SITE 2: note = 2-Aminoisobutyric Acid; SITE 6: note = alpha-methyl-2-fluoro-L-phenylalanine; SITE 10: note = 3-(4-Pyridyl)-L-alanine; SITE 13: note = alpha-methyl-leucine; SITE 17: note = Lysine is chemically modified through conjugation of the epsilon-amino group of the Lysine
Binder B11 has a Relative cAMP EC50 (hGLP-1R) of 1.08 nM, a cAMP Rel EC50 (in the presence of 1% HSA) (hGLP-1R) of 76.2 nM and a Relative cAMP EC50 [1] of 0.108 nM. The cAMP Rel EC50 (in the presence of 1% HSA) [1] was 7.23 nM, the Relative cAMP EC50 [2] was 11.7 nM and the cAMP Rel EC50 (in the presence of 1% HSA) [2] was 968 nM.

Reference: patent US20240270821A1, “GIP/GLP1/GCG TRI-RECEPTOR AGONISTS AND USES THEREOF” (priority 2023, published 2024)
